Reference: the nanobody polyreactivity screen of Harvey et al. (2022)

experiment: yeast display, Sf9 membrane polyspecificity reagent, FACS + sequencing; frameworks hold sequencing errors
In short: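 A nanobody's polyreactivity label depends on the gate it was sorted from. Yeast display cells were stained with 10% biotinylated, detergent-solubilized Sf9 membrane reagent for 1 hour at 4 °C, enriched on streptavidin microbeads and sorted by FACS. The low and high (top ~1%) gates were set on anti-HA fluorescence for expression and streptavidin fluorescence for reagent binding.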

Question: With “QVQLVESVGGLVQAGGSLRLSCAASGFIFFFYAMGWYRQAPGKERELVAAISDGVSTYYADSVKGRFTISSDNAKNTVYLQMNSLKPEDTAVYYCAVSRGDEPEFDYWGQGTQVTVSS” as the sequence, how does the “polyreactivity (PSR sort gate)” value read?
Answer: low polyreactivity

Question: With “QVQLVESVGGLVQAGGSLRLSCAASGFIILINVMGWYRKAPGKERELVAVITGGGTTNYADSVKGRFTISRDNAKNTVYLQMNSLKPEDTAVYYCAVDAGAGDNDYWGQGTQVTVSS” as the sequence, how does the “polyreactivity (PSR sort gate)” value read?
Answer: low polyreactivity

Question: For “QVQLVESVGGLVQAGGSLRLSCAASGFTFQYYALGWYRQAPGKERELVAAISWTGGRTYYADSVKGRFTISRDNAKNTVYLQMNSLKPEDTAVYYCNKVLYYYNSGEYDYWGQGTQVTVSS”, which “polyreactivity (PSR sort gate)” value is on record?
Answer: high polyreactivity

Question: For “QVQLVESVGGLVQAGGSLRLSCAASGFTFTWYDMGWYRQAPGKERELVAAITTDGGSTYYADSVKGRFTISRDNATNTVYLQMNSLKPEDTEVYYCAAAGYLPFPVEYEYWGQGTQVTVSS”, which “polyreactivity (PSR sort gate)” value is on record?
Answer: high polyreactivity

Question: For “QVQLVESVGGLVQAGGSLRLSCAASGFTFYVYAMGWYRQAPGKERELVAAISRGGSTYYADSVKGRFTISRDNAKNTVYLQMNSLKPEDTAVYYCNRVPYVSSSKVRYSNGFDYWGQGTLVTVSS”, which “polyreactivity (PSR sort gate)” value is on record?
Answer: low polyreactivity

Question: For “QVQLVESVGGLVQAGGSLRLSCAASGIIFRANAMGWYRQAPGKERELVAAISGRGSSTTYADSVKGRFTISRDNAKNTVYLQMNSLKPEDTAVYYCAAGYGKWFATWRSQKYDYWGQGTQVTVSS”, which “polyreactivity (PSR sort gate)” value is on record?
Answer: high polyreactivity

Question: Which “polyreactivity (PSR sort gate)” value does the source give for “QVQLVESVGGLVQAGGSLRLSCAASGITFFNYAMGWYRQAPGKERELVARINWSGGSTYYADSVTGRFTISRDNAKNTVYLQMNSLKPEDTAVYYCAARYWLPRGRRYDYWGQGTQVTVSS” here?
Answer: high polyreactivity

Question: For “QVQLVESVGGLVQAGGSLRLSCAASGITFPYYAMGWYRQAPGKERELVAAISRGDSTYYADSVKGRFTISRDNAKNTVYLQMNSLKPEDTAVYYCAARYGRYWSSCGSWTPYGYWGQGTQVTVSS”, which “polyreactivity (PSR sort gate)” value is on record?
Answer: high polyreactivity

Question: With “QVQLVESVGGLVQAGGSLRLSCAASGITIADNAMGWYRQAPRKERELVAAITSGGSTYYADAVKGRFTISRDNAKNTVYFQLNSLKPEDTGVYYCIVRVRRLFYWARLVAYDYWGQGSQVTVSS” as the sequence, how does the “polyreactivity (PSR sort gate)” value read?
Answer: high polyreactivity

Question: With “QVQLVESVGGLVQAGGSLRLSCAASGLIFASYAMGWYRQAPGKERELVAAISWSGGSTYYADSVKGRFTISRDYAKITVYLQMNSLKPEDTAVYYCAAIRYAYGSLDYWGQGTQVTVSS” as the sequence, how does the “polyreactivity (PSR sort gate)” value read?
Answer: high polyreactivity

Question: With “QVQLVESVGGLVQAGGSLRLSCAASGRIFAPNAMGRYRQAPGKERELVAAITSRGSRTYYADSVKGRFTISRDIAKNTVYLQMKSLKPEDTAVYYCATPYRAPWGTARNYGLYYYWGQGTQVTVSS” as the sequence, how does the “polyreactivity (PSR sort gate)” value read?
Answer: high polyreactivity

Question: Which “polyreactivity (PSR sort gate)” value does the source give for “QVQLVESVGGLVQAGGSLRLSCAASGRIFGYNAMGWYRQAPGKEWELVAGITSVGRTYYADSVNGRFTISRDNAKNTVYLQMNSLKPEDTAVYYCNAASYSLAVTAEFEDMDYWGQGTQVTVSS” here?
Answer: low polyreactivity

Question: For “QVQLVESVGGLVQAGGSLRLSCAASGRIFRKYDMGWYRQAPGKERELVAAISGTGITYYADSVKGRFTISRDNAKNTVYLQMNSLKPEDTAVYYCARGSKPRAWSWAYPSATSIYDYWGQGTQVTVSS”, which “polyreactivity (PSR sort gate)” value is on record?
Answer: low polyreactivity

Question: With “QVQLVESVGGLVQAGGSLRLSCAASGRIFRYYAMGWYRQAPGKERELVAAISISGGRTYYADSVKGRFSISRDNAKNTVYLQMNSLKPEDTAVYYCNADPYWYDRDKKYDYWGQGTQVTVSS” as the sequence, how does the “polyreactivity (PSR sort gate)” value read?
Answer: high polyreactivity

Question: Which “polyreactivity (PSR sort gate)” value does the source give for “QVQLVESVGGLVQAGGSLRLSCAASGRIFYTYAMGWYRPAPGKERELVAAISSRTGSTYYADSVKGRFTISRDNAKNTVYLQMNSLKPEDTAVYYCNAYRLRYGYDYWGQGTQVTVSS” here?
Answer: high polyreactivity

Question: For “QVQLVESVGGLVQAGGSLRLSCAASGRPFKKYAMGCYRQAPGKERALVAAITGSGGSTYYADAVKGRFTSSRDNAKKTVYLQMNSLKPEDTAVYYCAAYAYGVWHSHDGGNYWGQGTQVTVSS”, which “polyreactivity (PSR sort gate)” value is on record?
Answer: low polyreactivity

Question: Which “polyreactivity (PSR sort gate)” value does the source give for “QVQLVESVGGLVQAGGSLRLSCAASGRTFARYAMGWERQAPGQERELVAAISRNTGSTYADSVKGRFTISRDNAKNTVSLQMNSLKPEDTAVYYFASSWRGQDPYYRYVGRDYWGQGTQVTVSS” here?
Answer: high polyreactivity

Question: For “QVQLVESVGGLVQAGGSLRLSCAASGRTFFKYAMGWYRQAPGKERELVAAITASGGSTYYADSVKGRFTISRDNAKNTVYLQMNSLKPEDTAVYYCAARWRSVFWEYYYWGQGTQVTLSS”, which “polyreactivity (PSR sort gate)” value is on record?
Answer: high polyreactivity

Question: For “QVQLVESVGGLVQAGGSLRLSCAASGRTFGVYAMGWYRQAPGKERELVAAISRRAGNTYYADSVKGRFTISRDNAKNTVYLQMNSLKPEDTAVYYCAAYFSRQYGYWGLGTQVTVSS”, which “polyreactivity (PSR sort gate)” value is on record?
Answer: high polyreactivity

Question: For “QVQLVESVGGLVQAGGSLRLSCAASGRTFLNYAMGWYRQAPGKEREFVAAITWRVGTTYYADSVKGRFTISRDNAKNTVYLQMNSLKPEDTAVYYCNAVTARQSSQGEMDYWGQGTQVTVSS”, which “polyreactivity (PSR sort gate)” value is on record?
Answer: high polyreactivity

Question: Which “polyreactivity (PSR sort gate)” value does the source give for “QVQLVESVGGLVQAGGSLRLSCAASGRTFQYNAMGWYRPAPGKERELVAAISSSGGSTYYADSVKGRFTISRDNAKNTVYLQMNSLKPEDTAVYYCNAYSQSWNFYGDGDYWGQGTQVTVSS” here?
Answer: low polyreactivity

Question: For “QVQLVESVGGLVQAGGSLRLSCAASGRTFRTYTMGWYRQAPGKERELVAAIRSSGGRTYYADSVKGRFTISRDNAKNTVYLQMNSLKPEDTAVYYCAREYRGALHYYYCGQGTQVTVSS”, which “polyreactivity (PSR sort gate)” value is on record?
Answer: high polyreactivity

Question: With “QVQLVESVGGLVQAGGSLRLSCAASGRTFRYYTMGWYRQAPGKERELVASISWSGGSTYYADSVKGRFTISRDNAKNTVYLQMNSLKPEDTAVYYCNAVYGYRGVTNMDYWGQGTQVTVSS” as the sequence, how does the “polyreactivity (PSR sort gate)” value read?
Answer: high polyreactivity

Question: For “QVQLVESVGGLVQAGGSLRLSCAASGSIFAYNTMGWYRQAPGKERELVAAIRSRGGSTYYADSVKGRFTISRDNAKNTVYIQMNSLKPEDTPVSSCNAVGRARTLGSNTYGYWGQGTQVTVSS”, which “polyreactivity (PSR sort gate)” value is on record?
Answer: high polyreactivity

Question: With “QVQLVESVGGLVQAGGSLRLSCAASGSIFDRYAMGWYRQAPGKERELVAAISTGGSTNYADSVKGRFTISRDNAKNTVYLQMNSLKPEDTAVYYCAARYLYRMYYWGQGTQVTVSS” as the sequence, how does the “polyreactivity (PSR sort gate)” value read?
Answer: low polyreactivity

Question: For “QVQLVESVGGLVQAGGSLRLSCAASGSIFRAYAMGWYRQAPGKERELVAAISRSGDSTYYADSVKGRFTISRDNAKNTVYLQMNSLKPEDTADYYCAAQRKPYVRPSGPYKRRDYWGQGTQVTVSS”, which “polyreactivity (PSR sort gate)” value is on record?
Answer: high polyreactivity

Question: Which “polyreactivity (PSR sort gate)” value does the source give for “QVQLVESVGGLVQAGGSLRLSCAASGSIFRRYAMGWYRQAPGKERELVAGISSGGYTNYADSVKGRFTISRDNAKNTVYLQMNSLKPEDTAVYYCAAKQYRYVRYRPVDYWGQGTQVTVSS” here?
Answer: high polyreactivity

Question: For “QVQLVESVGGLVQAGGSLRLSCAASGSIFTRNTMGWYRQAPGKERELVAAISGGGSSTYYADSVKGRFTISRDNAKNTVYLQMNSLKPEETAVYYCAASLSRNYGYACYEYWGQGTQVTVSS”, which “polyreactivity (PSR sort gate)” value is on record?
Answer: high polyreactivity

Question: Which “polyreactivity (PSR sort gate)” value does the source give for “QVQLVESVGGLVQAGGSLRLSCAASGSIFVNNAMGWYRQAPGKERELVAAISSRSSRTFYADSVKGRFTISRDNAKNTVYLQINSLKPEDTAVYYCNAVGGRKFGEYDYWGQGTQVTVSS” here?
Answer: high polyreactivity

Question: With “QVQLVESVGGLVQAGGSLRLSCAASGSIFYQYAMGWYRQAPGKERELVAAISRSGGSTYYADSVKGRFTISRDIAKNTVYLQMNSLKPEDTAVYYCAADQKSLRMYYWGQGTQVTVSS” as the sequence, how does the “polyreactivity (PSR sort gate)” value read?
Answer: high polyreactivity

Question: Which “polyreactivity (PSR sort gate)” value does the source give for “QVQLVESVGGLVQAGGSLRLSCAASGSNFSVYVMGWYRQAPGKERELVADISRSGGSTYYADSVKGRFTISRDNAKNTVYLQMNSLKPEDTAVYYCAASLYLSWLFEYWGQGTQVTVSS” here?
Answer: low polyreactivity
